Experiments:
[1] = target: Tropomyosin alpha-3 chain (human) (UniProt P06753); assay: PIF affinity resin pull-down, CD14+ cell lysate, LC-MS/MS count
[2] = target: Lymphocyte-specific protein 1 (human) (UniProt P33241); assay: as above
[3] = target: Myeloid cell nuclear differentiation antigen (human) (UniProt P41218); assay: as above
[4] = target: Isoform Short of 14-3-3 protein beta/alpha (human) (UniProt P31946); assay: as above
[5] = target: Isoform 2 of Ras suppressor protein 1 (human) (UniProt Q15404); assay: as above
[6] = target: 14-3-3 protein gamma (human) (UniProt P61981); assay: as above
[7] = target: Plastin-2 (human) (UniProt P13796); assay: as above
[8] = target: Transitional endoplasmic reticulum ATPase (human) (UniProt P55072); assay: as above
[9] = target: 14-3-3 protein eta (human) (UniProt Q04917); assay: as above
[10] = target: Tropomodulin-3 (human) (UniProt Q9NYL9); assay: as above
[11] = target: Heat shock protein HSP 90-beta (human) (UniProt P08238); assay: as above
[12] = target: Actinin alpha 1 isoform 3 (human) (UniProt P12814); assay: as above
[13] = target: Vimentin (human) (UniProt P08670); assay: as above
[14] = target: Endoplasmin (human) (UniProt P14625); assay: as above
[15] = target: 14-3-3 protein theta (human) (UniProt P27348); assay: as above
[16] = target: Gelsolin (human) (UniProt P06396); assay: as above
[17] = target: Bridging integrator 2 (human) (UniProt Q9UBW5); assay: as above
[18] = target: Nuclear autoantigenic sperm protein (human) (UniProt P49321); assay: as above
[19] = target: Isoform 2 of Adenylyl cyclase-associated protein 1 (human) (UniProt Q01518); assay: as above
[20] = target: Histone-binding protein RBBP7 (human) (UniProt Q16576); assay: as above
[21] = target: Tubulin alpha-4A chain (human) (UniProt P68366); assay: as above
[22] = target: Thrombospondin-4 (human) (UniProt P35443); assay: PIF affinity resin pull-down, CD4+ cell lysate, LC-MS/MS count
[23] = target: Isoform 2 of Protein SET (human) (UniProt Q01105); assay: as above
[24] = target: Serine/arginine-rich-splicing factor 1 (human) (UniProt Q07955); assay: as above

Sequence of 14-3-3 protein eta (human) (Q04917 2-246 limits assumed): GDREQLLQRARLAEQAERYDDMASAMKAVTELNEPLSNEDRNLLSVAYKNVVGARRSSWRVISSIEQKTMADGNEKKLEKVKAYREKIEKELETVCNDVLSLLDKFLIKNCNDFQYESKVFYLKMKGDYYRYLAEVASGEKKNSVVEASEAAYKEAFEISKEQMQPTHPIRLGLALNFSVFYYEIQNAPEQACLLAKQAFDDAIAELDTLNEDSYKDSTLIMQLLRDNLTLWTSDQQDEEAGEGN
Sequence of Tubulin alpha-4A chain (human) (P68366 whole entry): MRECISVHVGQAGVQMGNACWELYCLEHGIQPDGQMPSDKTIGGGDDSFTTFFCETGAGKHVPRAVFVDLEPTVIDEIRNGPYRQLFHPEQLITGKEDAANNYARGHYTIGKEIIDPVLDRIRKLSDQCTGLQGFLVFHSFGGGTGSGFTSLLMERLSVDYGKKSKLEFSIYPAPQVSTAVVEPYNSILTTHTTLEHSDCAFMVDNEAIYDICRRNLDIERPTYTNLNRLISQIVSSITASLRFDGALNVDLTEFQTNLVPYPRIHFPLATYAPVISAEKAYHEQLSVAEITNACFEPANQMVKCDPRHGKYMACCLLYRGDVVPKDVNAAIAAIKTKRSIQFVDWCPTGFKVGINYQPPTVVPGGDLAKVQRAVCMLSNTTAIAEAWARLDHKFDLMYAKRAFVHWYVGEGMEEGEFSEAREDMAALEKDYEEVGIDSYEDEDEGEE
Sequence of Isoform 2 of Ras suppressor protein 1 (human) (Q15404 54-277 limits assumed): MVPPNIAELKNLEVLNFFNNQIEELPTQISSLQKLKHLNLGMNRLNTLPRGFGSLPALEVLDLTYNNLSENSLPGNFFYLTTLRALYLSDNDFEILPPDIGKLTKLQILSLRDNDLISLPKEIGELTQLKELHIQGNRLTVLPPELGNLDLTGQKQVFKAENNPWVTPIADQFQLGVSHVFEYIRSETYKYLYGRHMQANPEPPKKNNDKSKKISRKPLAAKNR
Sequence of Lymphocyte-specific protein 1 (human) (P33241 whole entry): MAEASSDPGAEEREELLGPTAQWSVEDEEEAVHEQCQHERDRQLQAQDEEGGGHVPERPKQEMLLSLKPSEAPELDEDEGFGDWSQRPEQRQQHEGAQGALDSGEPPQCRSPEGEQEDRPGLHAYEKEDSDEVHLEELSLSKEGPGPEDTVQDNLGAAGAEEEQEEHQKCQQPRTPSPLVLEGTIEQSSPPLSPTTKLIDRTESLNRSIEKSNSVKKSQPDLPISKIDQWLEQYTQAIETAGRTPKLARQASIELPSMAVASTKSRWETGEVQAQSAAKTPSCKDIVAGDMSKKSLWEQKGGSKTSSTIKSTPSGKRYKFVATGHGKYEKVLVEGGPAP
Sequence of Histone-binding protein RBBP7 (human) (Q16576 2-425 limits assumed): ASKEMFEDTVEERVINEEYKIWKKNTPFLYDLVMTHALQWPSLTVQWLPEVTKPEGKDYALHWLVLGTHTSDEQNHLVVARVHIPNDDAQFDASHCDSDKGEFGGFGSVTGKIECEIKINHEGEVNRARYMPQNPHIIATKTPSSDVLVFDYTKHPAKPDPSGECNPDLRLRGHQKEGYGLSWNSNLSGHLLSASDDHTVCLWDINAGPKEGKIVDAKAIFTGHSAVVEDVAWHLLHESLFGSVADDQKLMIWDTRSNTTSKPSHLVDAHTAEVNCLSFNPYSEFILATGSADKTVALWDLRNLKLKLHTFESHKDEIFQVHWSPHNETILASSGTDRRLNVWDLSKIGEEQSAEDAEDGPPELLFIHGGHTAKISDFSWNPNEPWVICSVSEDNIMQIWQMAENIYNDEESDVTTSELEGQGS
Sequence of 14-3-3 protein theta (human) (P27348 whole entry): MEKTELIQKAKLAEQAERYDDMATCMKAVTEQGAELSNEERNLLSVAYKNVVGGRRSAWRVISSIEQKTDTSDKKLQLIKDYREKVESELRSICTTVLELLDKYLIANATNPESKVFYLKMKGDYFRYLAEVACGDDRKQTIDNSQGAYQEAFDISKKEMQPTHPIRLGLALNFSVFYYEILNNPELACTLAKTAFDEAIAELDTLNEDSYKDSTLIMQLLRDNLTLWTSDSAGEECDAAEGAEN
Sequence of Transitional endoplasmic reticulum ATPase (human) (P55072 2-806 limits assumed): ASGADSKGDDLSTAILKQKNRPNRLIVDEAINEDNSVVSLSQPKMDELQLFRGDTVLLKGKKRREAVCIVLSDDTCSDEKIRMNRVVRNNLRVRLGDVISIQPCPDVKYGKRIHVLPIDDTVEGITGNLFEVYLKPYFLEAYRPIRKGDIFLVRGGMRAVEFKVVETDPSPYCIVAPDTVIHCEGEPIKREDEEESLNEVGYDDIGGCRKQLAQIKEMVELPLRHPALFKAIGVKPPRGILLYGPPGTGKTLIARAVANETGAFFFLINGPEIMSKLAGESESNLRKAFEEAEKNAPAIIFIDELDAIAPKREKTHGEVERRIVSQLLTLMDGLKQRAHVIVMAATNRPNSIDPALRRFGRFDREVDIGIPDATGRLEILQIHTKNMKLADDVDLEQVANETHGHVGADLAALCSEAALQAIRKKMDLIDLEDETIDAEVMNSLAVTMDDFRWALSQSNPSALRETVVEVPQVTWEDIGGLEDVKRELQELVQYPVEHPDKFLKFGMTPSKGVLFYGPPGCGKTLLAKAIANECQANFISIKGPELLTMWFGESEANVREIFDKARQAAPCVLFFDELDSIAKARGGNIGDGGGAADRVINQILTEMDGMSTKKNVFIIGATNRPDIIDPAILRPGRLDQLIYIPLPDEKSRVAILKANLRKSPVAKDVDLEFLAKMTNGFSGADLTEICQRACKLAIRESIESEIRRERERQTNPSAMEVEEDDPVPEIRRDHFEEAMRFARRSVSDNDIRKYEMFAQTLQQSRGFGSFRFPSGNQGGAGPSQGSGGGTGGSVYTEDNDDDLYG
Sequence of Isoform 2 of Adenylyl cyclase-associated protein 1 (human) (Q01518 other isoform, or with tags, fused parts or gaps limits assumed): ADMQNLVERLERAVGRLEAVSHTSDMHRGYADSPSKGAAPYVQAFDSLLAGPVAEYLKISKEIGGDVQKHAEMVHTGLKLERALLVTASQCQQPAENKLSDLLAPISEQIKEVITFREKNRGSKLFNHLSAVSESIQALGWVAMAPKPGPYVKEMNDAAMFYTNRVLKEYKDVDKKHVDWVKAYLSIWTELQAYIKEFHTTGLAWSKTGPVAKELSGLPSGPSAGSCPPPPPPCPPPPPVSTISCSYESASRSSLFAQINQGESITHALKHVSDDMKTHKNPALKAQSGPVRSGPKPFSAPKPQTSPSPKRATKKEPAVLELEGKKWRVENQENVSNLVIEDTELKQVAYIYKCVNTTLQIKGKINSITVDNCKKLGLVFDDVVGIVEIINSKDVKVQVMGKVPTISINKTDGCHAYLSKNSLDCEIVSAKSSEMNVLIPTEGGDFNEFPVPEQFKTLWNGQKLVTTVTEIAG
Sequence of Nuclear autoantigenic sperm protein (human) (P49321 2-788 limits assumed): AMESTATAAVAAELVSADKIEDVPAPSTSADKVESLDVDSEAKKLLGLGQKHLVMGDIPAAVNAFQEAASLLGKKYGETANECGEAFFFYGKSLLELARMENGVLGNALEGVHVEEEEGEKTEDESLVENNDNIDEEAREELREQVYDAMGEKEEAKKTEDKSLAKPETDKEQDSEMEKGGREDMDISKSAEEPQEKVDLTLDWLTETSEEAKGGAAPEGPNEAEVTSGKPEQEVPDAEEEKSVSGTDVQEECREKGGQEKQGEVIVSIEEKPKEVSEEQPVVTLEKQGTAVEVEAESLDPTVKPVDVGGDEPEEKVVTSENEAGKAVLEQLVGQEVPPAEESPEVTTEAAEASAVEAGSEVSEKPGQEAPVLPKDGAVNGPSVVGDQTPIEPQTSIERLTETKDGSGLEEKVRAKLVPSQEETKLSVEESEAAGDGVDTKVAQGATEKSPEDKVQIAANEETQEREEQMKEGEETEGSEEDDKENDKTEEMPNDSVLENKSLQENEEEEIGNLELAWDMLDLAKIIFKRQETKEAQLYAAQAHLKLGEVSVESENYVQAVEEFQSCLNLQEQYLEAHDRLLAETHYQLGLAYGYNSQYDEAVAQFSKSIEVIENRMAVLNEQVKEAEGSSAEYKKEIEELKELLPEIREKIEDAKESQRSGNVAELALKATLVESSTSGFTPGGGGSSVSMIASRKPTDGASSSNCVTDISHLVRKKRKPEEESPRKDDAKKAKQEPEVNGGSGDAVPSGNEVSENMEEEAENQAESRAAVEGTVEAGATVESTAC
Sequence of Vimentin (human) (P08670 2-466 limits assumed): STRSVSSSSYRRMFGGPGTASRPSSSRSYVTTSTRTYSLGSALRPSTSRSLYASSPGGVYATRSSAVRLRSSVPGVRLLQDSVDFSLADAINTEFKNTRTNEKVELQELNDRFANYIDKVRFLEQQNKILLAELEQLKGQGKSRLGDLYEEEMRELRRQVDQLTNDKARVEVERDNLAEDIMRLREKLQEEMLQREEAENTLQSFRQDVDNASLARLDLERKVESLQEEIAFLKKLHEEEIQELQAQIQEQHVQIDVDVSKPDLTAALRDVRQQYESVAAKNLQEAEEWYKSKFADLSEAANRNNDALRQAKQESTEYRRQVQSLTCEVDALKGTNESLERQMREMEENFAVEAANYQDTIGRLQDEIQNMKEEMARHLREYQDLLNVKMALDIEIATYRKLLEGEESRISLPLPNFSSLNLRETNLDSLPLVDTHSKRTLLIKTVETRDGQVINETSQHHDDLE
Sequence of Tropomyosin alpha-3 chain (human) (P06753 2-285 limits assumed): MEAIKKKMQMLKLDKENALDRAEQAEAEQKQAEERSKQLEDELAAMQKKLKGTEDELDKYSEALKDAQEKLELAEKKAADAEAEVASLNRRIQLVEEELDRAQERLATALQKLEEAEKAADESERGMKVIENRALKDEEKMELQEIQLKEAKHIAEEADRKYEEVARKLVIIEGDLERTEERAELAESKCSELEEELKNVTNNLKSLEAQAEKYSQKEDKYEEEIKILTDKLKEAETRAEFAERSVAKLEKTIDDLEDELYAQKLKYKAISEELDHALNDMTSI

## PIF15 affinity resin (Cys-C6 spacer-PIF15 conjugated to agarose) (peptide)
[1]
  Ave: 4
  Inject 1: 4
  Inject 2: 2
  Inject 3: 5
[2]
  Ave: 2
  Inject 1: 4
  Inject 2: 2
  Inject 3: 1
[3]
  Ave: 2
  Inject 1: 2
  Inject 2: 2
  Inject 3: 2
[4]
  Ave: 3
  Inject 1: 3
  Inject 2: 3
  Inject 3: 4
[5]
  Ave: 1
  Inject 1: 0
  Inject 2: 1
  Inject 3: 2
[6]
  Ave: 3
  Inject 1: 3
  Inject 2: 3
  Inject 3: 3
[7]
  Ave: 1
  Inject 1: 1
  Inject 2: 1
  Inject 3: 2
[8]
  Ave: 3
  Inject 1: 3
  Inject 2: 2
  Inject 3: 3
[9]
  Ave: 1
  Inject 1: 1
  Inject 2: 1
  Inject 3: 2
[10]
  Ave: 1
  Inject 1: 1
  Inject 2: 2
  Inject 3: 1
[11]
  Ave: 1
  Inject 1: 2
  Inject 2: 1
  Inject 3: 1
[12]
  Ave: 4
  Inject 1: 5
  Inject 2: 4
  Inject 3: 3
[13]
  Ave: 10
  Inject 1: 9
  Inject 2: 11
  Inject 3: 9
[14]
  Ave: 1
  Inject 1: 0
  Inject 2: 2
  Inject 3: 1
[15]
  Ave: 1
  Inject 1: 1
  Inject 2: 1
  Inject 3: 2
[16]
  Ave: 2
  Inject 1: 3
  Inject 2: 1
  Inject 3: 1
[17]
  Ave: 1
  Inject 1: 1
  Inject 2: 2
  Inject 3: 0
[18]
  Ave: 1
  Inject 1: 2
  Inject 2: 0
  Inject 3: 1
[19]
  Ave: 3
  Inject 1: 4
  Inject 2: 3
  Inject 3: 2
[20]
  Ave: 1
  Inject 1: 2
  Inject 2: 0
  Inject 3: 1
[21]
  Ave: 2
  Inject 1: 2
  Inject 2: 3
  Inject 3: 1
[22]
  Ave: 3
  Inject 1: 3
  Inject 2: 3
  Inject 3: 3
[23]
  Ave: 4
  Inject 1: 3
  Inject 2: 4
  Inject 3: 4
[24]
  Ave: 2
  Inject 1: 2
  Inject 2: 2
  Inject 3: 2
